Source: publication PMC6831629

Biological target: myc-tagged Trpc1 (transient receptor potential canonical subfamily member 1) (X. laevis)
Assay: co-IP; mRNAs co-injected into 4-cell stage X. laevis embryos (200 pg/cell each); 12 animal caps (stage 8-9) lysed in SOFT buffer (50 mM Tris pH 7.4, 100 mM NaCl, 5 mM EDTA, 0.05% NP40, 1% Triton X100); 120 µg protein precipitated with anti-HA or anti-Myc antibodies and A/G protein beads; blots with anti-HA and anti-Myc; animal caps with or without 2 µg/mL noggin for 15 min before lysis

Substance: HA-tagged BMP receptor type II, full length
- fold change of the co-immunoprecipitated fraction with noggin against without noggin: 1.64 fold
